Data as given in article PMC11480844 (2024).

B1: H2-Kb / Ed33 (parent complex)
chain 1: SQLAEENSWALSVHEGESVTVNCSYKTSITALQWYRQKSGKGPAQLILIRSNEREKRNGRLRATLDTSSQSSSLSITATRCEDTAVYFCATDHNNAGAKLTFGGGTRLTVRP
chain 2: DAGVTQTPRHEVAEKGQTIILKCEPVSGHNDLFWYRQTKIQGLELLSYFRSKSLMEDGGAFKDRFKAEMLNSSFSTLKIQPTEPKDSAVYLCASSLYTNQAPLFGEGTRLSVL
chain 3: not shown
chain 4: IQKTPQIQVYSRHPPENGKPNILNCYVTQFHPPHIEIQMLKNGKKIPKVEMSDMSFSKDWSFYILAHTEFTPTETDTYACRVKHDSMAEPKTVYWDRDM
chain 5: SIINFEKL
B2: H2-Kb / Ed40 (parent complex)
chain 1: GDSVTQTEGPVTVSESESLIINCTYSATSIAYPNLFWYVRYPGEGLQLLLKVITAGQKGSSRGFEATYNKETTSFHLQKASVQESDSAVYYCALGDGYTGNYKYVFGAGTRLKVIA
chain 2: DSGVVQSPRHIIKEKGGRSVLTCIPISGHSNVVWYQQTLGKELKFLIQHYEKVERDKGFLPSRFSVQQFDDYHSEMNMSALELEDSAMYFCASSGASAETLYFGSGTRLTVL
chain 3: not shown
chain 4: B1 chain 4
chain 5: SIINFEKL

Variants of: B1
Test: % of reporter cells activated (NFAT-GFP), raw
Also: test concentration or dose not given here.

Variant | ratio to parent
chain 5 I2M | 1.08
chain 5 I2S | 0.691
chain 5 I2W | 0.738
chain 5 E6L | 0.00458
chain 5 E6S | 0.0699
chain 5 F5L | 0.916
chain 5 F5M | 1.09
chain 5 F5Y | 1.04
chain 5 I3C | 1.02
chain 5 I3A | 1.03

Now from value to variant:

ratio to parent | Variant
0.0163 | chain 5 N4Y
0.271 | chain 5 N4I
0.00151 | chain 5 N4M
0.181 | chain 5 N4V
0.815 | chain 5 L8V
0.929 | chain 5 L8T
0.87 | chain 5 L8G
0.0519 | chain 5 K7L
0.0503 | chain 5 K7D
0.61 | chain 5 S1T

Variants of: B2
Test: % of reporter cells activated (NFAT-GFP), raw

Variant | ratio to parent
chain 5 I2A | 1.13
chain 5 I2M | 0.913
chain 5 I2R | 0.958
chain 5 I2K | 0.968
chain 5 I2C | 1.02
chain 5 I2D | 1.2
chain 5 I2H | 0.7
chain 5 I2F | 1
chain 5 I2P | 1.07
chain 5 I2E | 0.869
chain 5 I2W | 0.654
chain 5 I2T | 1.18
chain 5 I2V | 1.15
chain 5 I2Y | 0.834
chain 5 I2Q | 0.697
chain 5 I2N | 0.757
chain 5 I2L | 1.14
chain 5 I3M | 0.462
chain 5 I3K | 0.791
chain 5 I3F | 0.641
chain 5 I3H | 0.67

Variant | ratio to parent
chain 5 I3N | 0.534
chain 5 I3E | 0.545
chain 5 I3L | 0.895
chain 5 I3D | 0.166
chain 5 I3A | 0.28
chain 5 E6N | 0.287
chain 5 E6R | 0.675
chain 5 E6S | 0.162
chain 5 E6F | 0.0664
chain 5 E6A | 0.445
chain 5 E6Y | 0.0704
chain 5 E6L | 0.11
chain 5 E6K | 0.634
chain 5 E6I | 0.00278
chain 5 E6V | 0.00511
chain 5 E6P | 0.164
chain 5 E6Q | 0.527
chain 5 E6W | 0.0475
chain 5 E6T | 0.0789
chain 5 E6M | 0.172
chain 5 E6C | 0.0158

Variant | ratio to parent
chain 5 E6D | 0.844
chain 5 F5V | 0.868
chain 5 F5N | 0.891
chain 5 F5S | 1.09
chain 5 F5Y | 1.11
chain 5 F5D | 0.49
chain 5 F5I | 0.615
chain 5 F5M | 0.856
chain 5 F5K | 0.685
chain 5 F5G | 0.78
chain 5 F5C | 1.01
chain 5 F5A | 0.944
chain 5 F5L | 0.906
chain 5 F5T | 1.22
chain 5 F5W | 1.02
chain 5 F5P | 0.944
chain 5 F5H | 1.06
chain 5 F5R | 0.938
chain 5 F5Q | 0.601

Continued, values first:

ratio to parent | Variant
0.789 | chain 5 I3S
0.329 | chain 5 I3Q
0.488 | chain 5 I3W
0.207 | chain 5 I3R
0.601 | chain 5 I3P
0.0192 | chain 5 K7F
0.382 | chain 5 K7G
0.0102 | chain 5 K7D
0.0429 | chain 5 K7M
0.754 | chain 5 K7H
0.648 | chain 5 K7S
0.343 | chain 5 K7A
0.121 | chain 5 K7Q
0.444 | chain 5 K7Y
0.00653 | chain 5 K7E
0.0448 | chain 5 K7C
0.296 | chain 5 K7P
0.224 | chain 5 K7V
0.644 | chain 5 K7W
0.165 | chain 5 K7I
0.163 | chain 5 K7N
0.914 | chain 5 S1H
1.01 | chain 5 S1A

ratio to parent | Variant
0.432 | chain 5 S1E
0.738 | chain 5 S1V
0.576 | chain 5 S1P
0.597 | chain 5 S1I
0.993 | chain 5 S1M
0.466 | chain 5 S1L
0.31 | chain 5 S1N
0.92 | chain 5 S1T
0.615 | chain 5 S1C
0.977 | chain 5 S1Y
0.532 | chain 5 S1R
0.765 | chain 5 S1F
0.681 | chain 5 L8S
0.822 | chain 5 L8H
0.785 | chain 5 L8R
0.787 | chain 5 L8W
0.555 | chain 5 L8C
0.612 | chain 5 L8E
0.993 | chain 5 L8F
0.95 | chain 5 L8I
0.645 | chain 5 L8N
0.897 | chain 5 L8M
0.546 | chain 5 L8D

ratio to parent | Variant
0.816 | chain 5 L8K
0.831 | chain 5 L8V
0.816 | chain 5 L8A
0.96 | chain 5 L8Y
0.716 | chain 5 L8Q
0.651 | chain 5 L8P
0.00938 | chain 5 N4F
0.0147 | chain 5 N4S
0.362 | chain 5 N4R
0.0365 | chain 5 N4K
0.00321 | chain 5 N4P
0.00392 | chain 5 N4V
0.0118 | chain 5 N4G
0.086 | chain 5 N4L
0.00154 | chain 5 N4E
0.0593 | chain 5 N4H
0.00287 | chain 5 N4W
0.0166 | chain 5 N4A
0.0253 | chain 5 N4C
0.00152 | chain 5 N4Q
0.00232 | chain 5 N4M
0.02 | chain 5 N4I
0.00665 | chain 5 N4D
